From the nanobody polyreactivity screen of Harvey et al. (2022)

test: yeast display, Sf9 membrane polyspecificity reagent, FACS + sequencing; frameworks hold sequencing errors
In short: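 A nanobody's polyreactivity label depends on the gate it was sorted from. Yeast display cells were stained with 10% biotinylated, detergent-solubilized Sf9 membrane reagent for 1 hour at 4 °C, enriched on streptavidin microbeads and sorted by FACS. The low and high (top ~1%) gates were set on anti-HA fluorescence for expression and streptavidin fluorescence for reagent binding.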

Sequence | polyreactivity (PSR sort gate)
QVQLVESGGGLVKAGGSLSLSCAASGFTVYRYTMGWYRPAPGKEREVVARITYSGGSTYYADSVKVRFTISRDNAKNTVYLQLYCLKPVDSAVYYCNARSDFYSRYGYKYDYWGQGTQVTVSS | high polyreactivity
QVQLVESGGGLVQAGGSLRLSCAASGRIIGYNAMGWYRQAPGKERELVATITYGGGRTYYADSVKGRFTISRDNAKNTVYLQMNSLKPEDTAVYYCAAKHRFPIPGFGYWGQGTQVTVSS | low polyreactivity
QVQLVESGGGLVQAGGSLRLSCAASGIISYLYAMGCYRQAPGKEREWVAVIRTSDAITYYADSVKGRFTISRDNAKNTVYLQMNSLKPQDTAVYYCAAAGYAWWGEYEYWGQGTLVTVSS | high polyreactivity
QVQLVESGGGLVQAGGSLRLSCAATGRSFVHKAMGWYRQAPGKERELVAAISRGGSTYYADSVKGRFTISRDNAKNTVYLQMNSMKPEDTAVYYCAKERRYTGRRSYEFNYWGQGTHVTVSS | low polyreactivity
QVQLVESGGGLVQAGGSLRLSCAASGITFERYTMGWYRQAPGKERELVAAIRGSGGTYYADSVKGRFTISRDNAKNTVYLQMNSLKPEDTAVYYCAARYSYRYGVVYGTLHGYWGQGTQVTVSS | high polyreactivity
QVQLVESGGGLVQAGGSLRLSCAASGRTLKRNAMGWYRQAPGKERELVAAISFRVTNTYYADSVKGRFTISRDNAKNTVYLQMNSLKPEDTAVYYCAVPDSRFYSPRRVSPHDYWGQGTQVTVSS | high polyreactivity
QVQLGESGGGLLQAGGSLRLSCAASGRSFSVNFMGWYRQAPGKDTELVAAIDTSGGSTYYADSVKGRFTISRDNAKNTVYLQMNCLNPEHTAVYVCASGFYGYRSSCYWGQGTQVTVSS | low polyreactivity
QVQLVESRGCLVQAGVSLRLSCAASGSTFQSYAMGCYRQAPGKERELVAAISTSETDRTYYADSVKGRFTISRDNAKNTVYLQMISLKPEDTAVYYCNADGYSHGDWYGYWGQGTQVTVSS | low polyreactivity
QVQLVESGGGLVQAGGSLRLSCAASGSIFSSYAMGWYRPAPGNERELVAAISKSGGSTYYADSVKGRFTISRDNAKNTVYLQMNSLKPEDTAVYYCAARTRQLEYNSWGQGTQVTVSS | high polyreactivity
QVQLVESGGGLVQAGGSLRLSCAASGSTLNSYAMGLYRQAPGKDRELVAAISWSGGSTYYADSVKGRFSISRDNAKNTVYLQMNSVKAEDTAVYYCNAAFWWDYAYGVDYWGQGTQVTVSS | low polyreactivity
QVQLVESGGGLVQAGGSLRSSCAATGRTFYYNGMGWYRQAPGKERELVATITNGGSTNYADSVKGRFTISRDNAKNTVYLQMNSLKPEDTAVSYCAKTLASDCYDYWGQGTQVTVSS | low polyreactivity
QVQLVESGGGLVQAGGSLRLSCAASGFIFYYYAMGWYRQAPGKERELVAGITATGGSTYYEDSVKGRFTISRDNAKNTVYLQMNSLKPEDTAVYYCAAEHGRRATYTWWVIYDYWGQGTQVTVSS | low polyreactivity
QVQLVESGGGLVQAGGSLRLSCAASGRIFPPYAMGWYRQAPGKERELVAAISSSTTSTYYADSVKGRFTISRDNAKNTVYLQMNSLKPEDTGVYYCAAQPYRAAFPYSSRRHLQYEYWGQGTQVTVSS | low polyreactivity
QVQLVESGGGLVQAGGSLGLSCAASGSTLYGNAMGWYRQAPGKERELVAAINTGGSTNYADSVKGRFTISRDNAKNTVYVQMNSLKPEDTAVYYCAADYEWDATHDYWGQGTQVTVSS | low polyreactivity
QVQLVESGGGLVQAGGSLRLTCAASGGTISVYDMGWYRQAHGNERELVAAIRDRGVSTYYADSVKGRFTISRDTAKNTVYLQMNSLKPEDTAVYYCAAEYFDGSTYSYYYWGQGTQVTVSS | high polyreactivity
QVQLVESGGGLVQAGGSLRLSCAASGGIFKYYAMGWSRQAPGTERELVAAITSGGNTNYAESVKGRFTISRDNAKNTVYLQMNSQKPEDTAVYYCSARSISRRTWQYNYWGQGTQVTVSS | high polyreactivity
QVQLVESGGGLVQAGGSLRLSCAASGRTFYRNDMGWYRQEPGKEREFVAAITSSGGTTYADSVKGRFTISRDNAKNTVYLQMNSLKPEDTAVYYCNTVLYPYWQWDYEFDYWGQGTQVTVSS | low polyreactivity
QVLLVESGGGLVQAGGSLRLSCAASGIILGDNARGWYRQAPGKDRVLDATISTSGVSTYYADSVKGRFTISRDNAKKTVNFQMNSLKPQDTAVYYCAASNEVPWRFPDDSWGQGTQVTVSS | low polyreactivity
QVQLVESGGGLDQAGGSLRLSCAASGLISYRNAMGWYRQAPGKERELVAAISSDGSTYYADSVKGRFTISRDNAKNSVYLQMNSLKPEDTAVYYCNADVFRKFGSPSAYKSHRYDYWGQGTQVTVSS | low polyreactivity
QVQLVESGGGLVQAGGSLRLSCAASGRIFIGNAMGWYRQAPGKERELVADISYSGGTTYYADSVKGRFTISRENAKNTVYVQMNSLKPVDTAVYYCNKYDPRPVWQGWVWIEYYYWGQGTQVTVSS | low polyreactivity

Sequence | polyreactivity (PSR sort gate)
QVQLVESGGGLVQAGGSLRLSCAASGGTFTGYAMGWYRQEPGKERELVAGISRSGGSTYYADSVKGRFTISRDNAKNTVYLQMNSLKPEDTAVYYCAKDVLKYRYWYYPGYDYWGQGTQVTVSS | high polyreactivity
QVQLVDSGGGLVQAGGSLRLSCAASGRTIGINPMGWYRQAPGKERELVASITRSVGSTYDADSVKGRFTISRDNAKNTVYLQMNSLKPEDTEVYYCAAEYYTWSYYTKYYYWGQGTQVTVSS | high polyreactivity
QVQHVESGGGLVQAGGSLRLSCASSGSTFWFYAMGWYRQAPGKERELVATINWYGGTTNYADSVKGRFTISRDNAKNSVYLQMYSLKPEDTADYYGAGYQALTYGSYEYWGQGSQVTVSS | low polyreactivity
QVQLVESGGGLVQAGGSLRLSCAASGNIFSWNTMGWYRQAPGKERELVAAITYRGTRTFYADSVKRRFTISRDNAKNTVYLQMNSLKPEDTEVYYCAATRYAPYRRYYYWGQGTQVTVSS | high polyreactivity
QVQLVESGGGLVQAGGSLRLSCAASGGISLYYVMGWYRQAPGKERELVADISADDSTNYADSVKGRFTISRDNAKNTVYLQMNSLKPEDTAVYYCAAVPGLFYLPYDYWGQGTQVTVSS | low polyreactivity
QVQLVESGGGLFQAGGRLRLSCAATGSIFSVYTMGWYRQAPGKERELVATISFSVGRTYYADSVKGRFTISRDNEKNSVYLQMNSLKPEDTAVYYCNARSCGGYYHWGQGTQVTVSS | high polyreactivity
QVQLVESGGGLVQAGGSLRLSCAASGSIFGGNAMGWYRQAPGKERELVATITVRGGSTYYADSVKGRFTISRDNAKHTVYLQMNSLKPEDTAVYYCAARGGYLLPKYDYWGQGTQVTVSS | low polyreactivity
QVQHVESGGGVVQAGGSLRLSCAASGSIFSRYTMGWYRQAPGKERELVAAITSSGGRTYYADSVKGRFTISRDNAKNTVYLQMNSLKPEDTSVYYFDARIPKQQGYGYWGQGTQVTVSS | high polyreactivity
QVQLVESGGGLVQAGGSLRLSCAASGLIFYRYTMGWYRQAPGKEREFVAAITAGGSTYYADSVKGRFTISRDNAKNTVYVQMNSLKPEDTAVYYCATLVRLLQYTYIKYDYWGQGTQVTVSS | high polyreactivity
QVQLVESGGGLVQAGGSIRLSCAPSGSPNVTYDMGWYRQAPGKESELVASISRGGSTKYADSVKGRFTISRDNAKNTVFLQMNSLKPEDTAVFYGAAKAKNYRLGPYDYWGQGTQVTVSS | low polyreactivity
QYQLGESGGGLVQAGGSLRLSCAASGRIFTWNAMGWYRQAPGKERELVAAIRRGGGTYADSVKGRYTISRDNGKNTFYLQMHSLKPEDTAVYYCAATSGYYAMNYWGQGTQVTVSS | high polyreactivity
QVQLVESGGGLVKAGGSLRLSCAASGYTFLFNVMGWYRQAPGKEREIFATIRYSGGSTYYADSVKGRFTISRDNAKNTVYLQMNSLKPEDTAVYYCAARYAWYTSYCSRKYDYWGQGTQVTVSS | high polyreactivity
QVQLVESGGGLVQAGGSLRLSCAASGRTFRFNTMGWYRQAPGKERELVAAITSSGGSTYYADSVKGRFTISRDNAKNTVYLQMNSLKPEDTAVYYCAKRFYYRNRFDYWGQGTQVTVSS | low polyreactivity
QVQLVESGGGLVPAGGSLRLSCAASGRTFYSYGMGWYRQAPGKERELVASISSSTGSTYYADSVKGRFTISRDNAKNTVYLQMNSLKPEDTAVYYCAKRYSWTRRYDYWGQGTQVTVSS | high polyreactivity
QVQLVESGGGLVQAGGSLRLSCAASGRTFVNYVMGWYRQAPGKEREFVAAISRNGGSTYYADSVKGRFTISRDNAKNTVYLQMNSLKPEDTAVYYCAARVYWRYNYWGQGTQVTVSS | high polyreactivity
QVQLVESGGGLVQAGGSLRLSCAASGRTFQENGMGWYRQAPGKERELVATISQRGTSTYYADSVKGRFTISRDNAKNTVYLQMNSLKPEDTAVEYCARRRVYRWYTGDYWGQGTQVTVSS | low polyreactivity
QVQLVESGGGLVQAGGSLRLSCAASGGTFYYYAMGWYRQAPGKERELVAAISWSGVSTSYADSVKGRFTISRDNAKNTVFLQMNSMKPEDTAVYYCAAGPFYYTGGHWGQGTQVTVSS | high polyreactivity
QVQLVESGGGLVQAGGSLRLSCAASGSIFRYYAMGWYRQAPGKERELVATISWRGGRTNYADSVKGRFTISRDNAKNTVYLQMNSLKPEDTAVYYCAADPVRRPWGVVGGDYWGQGTQVTVSS | high polyreactivity
QVQHVESGGGLVQAGGSLRLSCAASGRIFKYNAMGWYRPAPGKERELVAAISYSGGSTYYADSVKGRFTISRDNAKNTVYLQMNSVKPEDTEVYYCAKATTTREPKYGYWGQGTQVTVSS | high polyreactivity
QVQLVESGGGLVQAGGSLRLSCAASGITFYRYDMGWYRQAPGKERELVAAISTRGGSTYYADSVKGRFTISRDNAKNTVYLQMNSLKPEDTAVYYCAKERVGTSLPFKDYYWGQGTQVTVSS | low polyreactivity
